# Literature values in publication PMC10974892.
# Columns and labels:
# PhoE (Escherichia coli) = PhoE (Escherichia coli) (UniProt P02932)
# OmpC (Escherichia coli) = OmpC (Escherichia coli) (UniProt P06996)
# [1] = target: intelectin-1 (hIntL-1) (Homo sapiens) (UniProt Q8WWA0)
# Sequence of UniProt Q8WWA0 (Q8WWA0 19-298): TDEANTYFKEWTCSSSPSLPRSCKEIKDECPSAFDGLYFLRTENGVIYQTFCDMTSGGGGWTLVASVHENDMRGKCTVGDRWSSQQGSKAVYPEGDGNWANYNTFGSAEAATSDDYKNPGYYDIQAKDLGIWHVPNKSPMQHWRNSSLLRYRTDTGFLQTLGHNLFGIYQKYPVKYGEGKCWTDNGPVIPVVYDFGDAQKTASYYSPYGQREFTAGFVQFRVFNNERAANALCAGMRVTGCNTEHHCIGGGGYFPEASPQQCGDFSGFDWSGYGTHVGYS
# Sequence of UniProt P02932 (P02932 22-351): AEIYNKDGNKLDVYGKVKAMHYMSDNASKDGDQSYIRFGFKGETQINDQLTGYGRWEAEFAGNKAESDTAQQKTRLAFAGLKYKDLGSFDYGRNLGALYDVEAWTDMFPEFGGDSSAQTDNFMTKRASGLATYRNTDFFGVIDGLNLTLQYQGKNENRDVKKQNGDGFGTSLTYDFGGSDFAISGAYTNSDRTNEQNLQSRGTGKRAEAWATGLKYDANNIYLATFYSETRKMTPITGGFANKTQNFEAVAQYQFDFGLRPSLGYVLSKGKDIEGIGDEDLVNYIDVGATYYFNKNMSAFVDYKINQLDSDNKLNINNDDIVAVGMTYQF
# Sequence of UniProt P06996 (P06996 22-367): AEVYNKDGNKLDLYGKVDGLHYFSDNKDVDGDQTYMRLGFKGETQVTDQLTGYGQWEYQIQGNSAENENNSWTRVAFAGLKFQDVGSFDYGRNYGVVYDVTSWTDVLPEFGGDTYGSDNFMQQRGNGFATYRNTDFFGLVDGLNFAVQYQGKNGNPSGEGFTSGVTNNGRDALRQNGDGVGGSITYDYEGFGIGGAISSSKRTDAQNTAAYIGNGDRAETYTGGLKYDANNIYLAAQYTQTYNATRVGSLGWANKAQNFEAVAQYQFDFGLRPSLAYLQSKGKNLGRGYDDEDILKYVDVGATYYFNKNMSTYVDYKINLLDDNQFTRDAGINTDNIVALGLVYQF
substance,measurement,setting,value
lactoferrin (from UniProt P02788),Kd,PhoE (Escherichia coli),103 nM
same,Kd,OmpC (Escherichia coli),39 nM
same,Kd,[1],500 nM
